We go through 1 protein from patent publication US11898181B2, “Genetically modified isopropylmalate isomerase enzyme complexes and processes to prepare elongated 2-ketoacids and C5-C10 compounds therewith” (Dow Global Technologies LLC, priority 2017, dated 2022).

For orientation: Km means the concentration of substrate that gives half-maximal velocity. A word on the kcat: it is the number of substrate molecules converted per active site and unit of time at saturation. In general, kcat/Km refers to the second-order rate constant that governs catalysis at low substrate concentration.

Common to all, as to assay: Kinetic analysis of LeuCD (LeuB-coupled HTP assay), Variant 3 (wild type)
Holding throughout (format): biochemical, E. coli

Substrate in data set [1]: CC(C)[C@@](O)(CC(=O)O)C(=O)O
To be noted: other: 2-IPM 0-0.625 mM, pH 8, room temperature, 30 min.

Substrate in data set [2]: CCCCCCC(O)(CC(=O)O)C(=O)O
As to conditions: other: 2-HM 0-1.6 mM, pH 8, room temperature, 30 min.

Substrate in data set [3]: CCCCC(O)(CC(=O)O)C(=O)O
To be noted: other: 2-BM 0-5 mM, pH 8, room temperature, 30 min.

B1: E. coli isopropylmalate isomerase LeuCD complex, wild type (Variant 3: Wt LeuC, SEQ ID NO: 1 + Wt LeuD, SEQ ID NO: 2) (Escherichia coli K-12) (protein)
chain 1: MGSSHHHHHHSSGMAKTLYEKLFDAHVVYEAENETPLLYIDRHLVHEVTSPQAFDGLRAHGRPVRQPGKTFATMDHNVSTQTKDINACGEMARIQMQELIKNCKEFGVELYDLNHPYQGIVHVMGPEQGVTLPGMTIVCGDSHTATHGAFGALAFGIGTSEVEHVLATQTLKQGRAKTMKIEVQGKAAPGITAKDIVLAIIGKTGSAGGTGHVVEFCGEAIRDLSMEGRMTLCNMAIEMGAKAGLVAPDETTFNYVKGRLHAPKGKDFDDAVAYWKTLQTDEGATFDTVVTLQAEEISPQVTWGTNPGQVISVNDNIPDPASFADPVERASAEKALAYMGLKPGIPLTEVAIDKVFIGSCTNSRIEDLRAAAEIAKGRKVAPGVQALVVPGSGPVKAQAEAEGLDKIFIEAGFEWRLPGCSMCLAMNNDRLNPGERCASTSNRNFEGRQGRGGRTHLVSPAMAAAAAVTGHFADIRNIK
chain 2: MAEKFIKHTGLVVPLDAANVDTDAIIPKQFLQKVTRTGFGAHLFNDWRFLDEKGQQPNPDFVLNFPQYQGASILLARENFGCGSSREHAPWALTDYGFKVVIAPSFADIFYGNSFNNQLLPVKLSDAEVDELFALVKANPGIHFDVDLEAQEVKAGEKTYRFTIDAFRRHCMMNGLDSIGLTLQHDDAIAAYEAKQPAFMN
notes: expression of a His-tagged LeuC having 13 additional amino acids on the N-terminus; made in house; host or cells: E. coli BL21(DE3), whole cell lysate
With B1, the results for the Km in data set [1] and in data set [3] were 68 ± 10 µM and 1330 ± 140 µM, respectively. The kcat in data set [1] was found to be 0.4239 ± 0.0161 s⁻¹; in data set [3] it was 1.7 ± 0.0897 s⁻¹. The kcat/Km in data set [1] is 6212.8 ± 659.7 M⁻¹ s⁻¹; in data set [2], 1.1 ± 0.28 M⁻¹ s⁻¹; in data set [3], 1291 ± 154 M⁻¹ s⁻¹.
